From article PMC8752837 (2022) come the findings set out here.

The IC50 is the concentration that inhibits the measured activity by half. A higher IC50 goes with lower potency. In general, Kd refers to the constant that tells how readily two partners part at equilibrium.

For one experiment, the target named is T1, GST-BAK (human).
T1 chain: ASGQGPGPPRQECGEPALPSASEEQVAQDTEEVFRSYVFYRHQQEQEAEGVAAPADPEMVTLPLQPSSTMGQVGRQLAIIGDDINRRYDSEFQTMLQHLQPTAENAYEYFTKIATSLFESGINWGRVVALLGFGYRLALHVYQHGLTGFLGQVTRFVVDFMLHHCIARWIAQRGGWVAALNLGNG
In words: FP.

The target in another experiment is T2, tevBAK (residues 22–186) (human, UniProt Q16611 22-186).
T2 chain: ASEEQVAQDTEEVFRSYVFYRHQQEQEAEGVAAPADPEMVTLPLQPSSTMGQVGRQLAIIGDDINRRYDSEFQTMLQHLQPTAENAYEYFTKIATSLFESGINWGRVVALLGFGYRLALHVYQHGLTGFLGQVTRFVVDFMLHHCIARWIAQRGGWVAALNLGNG
In words: ITC. Background: In ITC the heat of successive injections is recorded.

Ac-EDIIRNIARHLAQVGDSWDRSI-NH2 [W(4) BID BH3 peptide] registered an IC50 with GST-BAK of 11.5 µM.
The molecule Ac-EDIIRNIARHLAQVGDSMDRSW-NH2 [W(5) BID BH3 peptide] registered an IC50 with GST-BAK of 8.8 µM. The IC50 values of the last two molecules are within 1.5-fold of each other.
The same measure, in the same setting: with Ac-EDIIRNIARHLAQFGDSMDRSI-NH2 [F(3) BID BH3 peptide] the figure was 11.3 µM; with Ac-EDIWRNIARHLAQVGDSMDRSI-NH2 [W(0) BID BH3 peptide], 10.8 µM.
With Ac-EDIIRNIARHLAQWGDSMDRSI-NH2 [W(3) BID BH3 peptide], the IC50 with GST-BAK came to 6.6 µM.
On the same count and under the same terms, with Ac-EDIIRNIARHLAQYGDSMDRSI-NH2 [Y(3) BID BH3 peptide] the figure was 6.2 µM; with Ac-EDIIRNIARHLAQVGDSYDRSI-NH2 [Y(4) BID BH3 peptide], 6.9 µM; with Ac-EDIIRNIARHLAQMGDSMDRSI-NH2 [M(3) BID BH3 peptide], 4.6 µM.
In the experiment with GST-BAK, Ac-EDIIRNIARHLAQVGDSFDRSI-NH2 [F(4) BID BH3 peptide] displayed a 50% inhibitory concentration (IC50) of 11.9 µM.
In turn, Ac-EDIIRNIARHLAQVGDSMDRSI-NH2 [WT BID BH3 peptide] came in with a Kd with tevBAK (residues 22–186) of 22.7 µM. This molecule also showed a half-maximal inhibitory concentration (IC50) with GST-BAK of 12.2 µM.
Take Ac-EDIIRNIARHLAQWGDSMDRSW-NH2 [W(3)W(5) BID BH3 peptide]: in the experiment with tevBAK (residues 22–186), the dissociation constant (Kd) came to 0.25 µM.
